The values that follow come from patent US20240034814A1 (JANUX THERAPEUTICS, published 2024).

The target in assay [1] is T1, TROP2 on NCI-H292 tumor cells (UniProt P09758 27-274).
T1 sequence (looked up): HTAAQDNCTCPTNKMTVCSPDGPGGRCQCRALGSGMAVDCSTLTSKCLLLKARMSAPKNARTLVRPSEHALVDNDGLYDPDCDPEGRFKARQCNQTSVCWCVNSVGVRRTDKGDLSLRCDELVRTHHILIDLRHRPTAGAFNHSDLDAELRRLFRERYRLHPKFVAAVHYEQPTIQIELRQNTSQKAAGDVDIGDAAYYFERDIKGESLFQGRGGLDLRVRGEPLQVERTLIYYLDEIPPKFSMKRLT
In words: cell-based or functional assay.

Assay [2] deals with T1, TROP2 on NCI-H292 tumor cells. In words: Trop2 binding ELISA (TROP2 as ELISA antigen, not on cells), polypeptide complex titrated, OD 450 nm.
Assay [3] deals with T2, cynomolgus monkey serum albumin (cynomolgus monkey, UniProt A2V9Z4 25-608).
T2 construct: Coated on ELISA plates; also called cyno albumin
T2 sequence (A2V9Z4 25-608 limits assumed): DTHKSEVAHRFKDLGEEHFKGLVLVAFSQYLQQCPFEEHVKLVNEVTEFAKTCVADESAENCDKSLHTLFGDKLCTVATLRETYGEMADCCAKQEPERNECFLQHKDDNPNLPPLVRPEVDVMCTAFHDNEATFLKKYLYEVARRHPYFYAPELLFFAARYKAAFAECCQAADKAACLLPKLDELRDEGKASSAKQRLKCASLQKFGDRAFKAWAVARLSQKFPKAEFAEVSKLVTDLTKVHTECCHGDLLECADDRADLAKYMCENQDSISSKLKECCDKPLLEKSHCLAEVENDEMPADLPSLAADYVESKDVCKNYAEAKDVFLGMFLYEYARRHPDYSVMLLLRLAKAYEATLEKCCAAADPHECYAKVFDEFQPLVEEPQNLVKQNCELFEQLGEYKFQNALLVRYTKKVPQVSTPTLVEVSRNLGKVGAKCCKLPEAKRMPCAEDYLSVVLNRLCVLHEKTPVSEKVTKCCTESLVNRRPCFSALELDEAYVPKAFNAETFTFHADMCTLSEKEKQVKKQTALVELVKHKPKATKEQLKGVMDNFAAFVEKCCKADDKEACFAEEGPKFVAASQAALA
Description: ELISA, albumin coated plates, single domain antibody titrated, pH 7.4.

Assay [4] has as its target T3, human serum albumin (human, UniProt P02768 25-609).
T3 construct: also called HSA; HSA-biotin
The assay is described as above.

For assay [5], the target named is T2, cynomolgus monkey serum albumin. In words: ELISA, albumin coated plates, single domain antibody titrated, pH 5.5.
Assay [6] addresses T3, human serum albumin. The assay is described as above.
The target of assay [7] is T3, human serum albumin. Description: BLI (Octet RED96), biotinylated HSA on streptavidin biosensors, HE-1 titrated 100-3.125 nM, pH 7.4, 1:1 fit.
Assay [8] has as its target T4, Mouse Albumin (mouse, UniProt P07724).
T4 construct: coated on the ELISA plate; not described further; also called mouse serum albumin
Description: ELISA on an albumin coated plate, single domain antibody titrated, HRP secondary antibody, OD 450 nm.

Assay [9] has as its target T2, cynomolgus monkey serum albumin. Described as above.
Assay [10] deals with T3, human serum albumin. In words: BLI (Octet RED96), biotinylated HSA on streptavidin biosensors, HE-1 titrated 100-3.125 nM, association and dissociation at pH 5.5, 1:1 fit.
The target of assay [11] is T3, human serum albumin. In words: ELISA on an albumin coated plate, single domain antibody titrated, HRP secondary antibody, OD 450 nm.
For assay [12], the target named is T3, human serum albumin. In words: Octet, biotinylated human serum albumin on streptavidin biosensors, acidic buffer, association 1 (saturation using SDA).

T4 sequence (P07724 25-608 limits assumed): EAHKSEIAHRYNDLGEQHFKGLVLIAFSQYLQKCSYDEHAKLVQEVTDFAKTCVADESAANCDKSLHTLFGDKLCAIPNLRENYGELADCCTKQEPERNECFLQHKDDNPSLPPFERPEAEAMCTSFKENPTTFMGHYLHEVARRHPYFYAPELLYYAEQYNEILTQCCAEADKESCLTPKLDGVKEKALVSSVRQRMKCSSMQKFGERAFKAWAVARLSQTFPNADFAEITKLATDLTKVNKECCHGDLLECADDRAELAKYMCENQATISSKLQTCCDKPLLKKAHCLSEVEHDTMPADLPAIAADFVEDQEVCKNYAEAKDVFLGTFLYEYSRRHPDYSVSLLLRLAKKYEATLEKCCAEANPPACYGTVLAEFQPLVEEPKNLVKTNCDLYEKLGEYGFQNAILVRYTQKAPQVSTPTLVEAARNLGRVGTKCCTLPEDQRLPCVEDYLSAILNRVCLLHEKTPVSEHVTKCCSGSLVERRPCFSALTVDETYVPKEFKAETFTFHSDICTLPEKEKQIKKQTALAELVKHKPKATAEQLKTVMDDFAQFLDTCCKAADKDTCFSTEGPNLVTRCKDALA

B1: Polypeptide complex PC4 (bispecific antibody)
light: GGVDFCKIYSWPVCHQGGGGSGGLSGRSDAGSPLGLAGSGGSDIQLTQSPSSLSASVGDRVSITCKASQDVSIAVAWYQQKPGKAPKLLIYSASYRYTGVPDRFSGSGSGTDFTLTISSLQPEDFAVYYCQQHYITPLTFGAGTKVEIKRTVAAPSVFIFPPSDEQLKSGTASVVCLLNNFYPREAKVQWKVDNALQSGNSQESVTEQDSKDSTYSLSSTLTLSKADYEKHKVYACEVTHQGLSSPVTKSFNRGEC
heavy: not shown
In the case of B1, the “H292 IC50 (pM), 72 hours, tumor cell killing with CD8+ T cells” value in assay [1] was found to be 4120 pM.

B2: Polypeptide complex PC3 (bispecific antibody)
light: DIQLTQSPSSLSASVGDRVSITCKASQDVSIAVAWYQQKPGKAPKLLIYSASYRYTGVPDRFSGSGSGTDFTLTISSLQPEDFAVYYCQQHYITPLTFGAGTKVEIKRTVAAPSVFIFPPSDEQLKSGTASVVCLLNNFYPREAKVQWKVDNALQSGNSQESVTEQDSKDSTYSLSSTLTLSKADYEKHKVYACEVTHQGLSSPVTKSFNRGEC
heavy: QTVVTQEPSLTVSPGGTVTLTCRSSTGAVTTSNYANWVQQKPGQAPRGLIGGTNKRAPGTPARFSGSLLGGKAALTLSGVQPEDEAEYYCALWYSNLWVFGGGTKLTVLGGGGSGGGGSGGGGSEVQLVESGGGLVQPGGSLKLSCAASGFTFNTYAMNWVRQAPGKGLEWVARIRSKYNNYATYYADSVKDRFTISRDDSKNTAYLQMNNLKTEDTAVYYCVRHGNFGNSYVSWFAYWGQGTLVTVSSGGGGSQVQLQQSGSELKKPGASVKVSCKASGYTFTNYGMNWVKQAPGQGLKWMGWINTYTGEPTYTDDFKGRFAFSLDTSVSTAYLQISSLKADDTAVYFCARGGFGSSYWYFDVWGQGSLVTVSSASTKGPSVFPLAPSSKSTSGGTAALGCLVKDYFPEPVTVSWNSGALTSGVHTFPAVLQSSGLYSLSSVVTVPSSSLGTQTYICNVNHKPSNTKVDKKVEPKSC
notes: TROP2 and CD3 targeting regions (anti-CD3 scFv fused to the Fab heavy chain); No mask and no HE-1
With B2, the “H292 IC50 (pM), 72 hours, tumor cell killing with CD8+ T cells” value in assay [1] was determined as 0.88 pM. Moreover, the “EC50 (read off the curve)” value in assay [2] was ~0.2 nM.

B3: HE-1 anti-albumin (VHH)
VHH: EVQLVESGGGLVQPGGSLRLSCAASGSTFYTAVMGWVRQAPGKGLEWVAAIRWTALTTSYADSVKGRFTISRDGAKTTLYLQMNSLRPEDTAVYYCAARGTLGLFTTADSYDYWGQGTLVTVSS
notes: Single domain antibody; also called half-life extending single domain antibody
For the molecule B3, the 50% effective concentration (EC50) in assay [3] came to 1.3 nM; in assay [4] it was 1 nM; in assay [5], 1.3 nM; in assay [6], 0.9 nM. The Kd was found to be 5.98 nM in assay [7] and 4.19 nM in assay [10]. In addition, the koff in assay [7] amounted to 0.00341 s⁻¹; in assay [10] it was 0.00186 s⁻¹. In addition, the kon was 571000 M⁻¹ s⁻¹ in assay [7] and 444000 M⁻¹ s⁻¹ in assay [10]. Also, the binding result in assay [8] is “binds”. Moreover, the figures for the “EC50 (read off the curve)” value in [9] and in assay [11] were ~2 nM and ~1 nM, respectively.

B4: HE-2 (VHH)
VHH: EVQLVESGGGLVQPGGSLRLSCAASGSTFYTAVMGWVRQAPGKGLEWVAAIRWTALTTSYADSVKGRFTISRDGAKTTLYLQMNSLRPEDTAVYYCAARGTLGLFTTADHYDYWGQGTLVTVSS
notes: also called (HE-2) Anti-albumin
With B4, the binding result in assay [12] is recorded as “binds”.
